# Experimental data: publication PMC3501490, “An Investigation of Hierachical Protein Recruitment to the Inhibitory Platelet Receptor, G6B-b” (PLoS ONE, 2012)
# B1: SHP-2 tandem SH2, Q06124 (protein)
# chain: WFHPNITGVEAENLLLTRGVDGSFLARPSKSNPGDFTLSVRRNGAVTHIKIQNTGDYYDLYGGEKFATLAELVQYYMEHHGQLKEKNGDVIELKYPLNCADPTSERWFHGHLSGKEAEKLLTEKGKHGSFLVRESQSHPGDFVLSVRTGDDKGESNDGKSKVTHVMIRCQELKYDVGGGERFDSLTDLVEHYKKNPMVETLGTVLQLKQPL
# Molecular target: G6B-b dual phosphopeptide pY211/pY237 (Homo sapiens), O95866
# Sequence (O95866 206-241): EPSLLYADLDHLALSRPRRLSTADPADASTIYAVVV
# Assay: SPR
binder,measurement,value
B1,Kd,480 pM
